# Measurements published in patent publication US12648942B2, “Method for treating acute ischemic stroke” (Lumosa Therapeutics Co., LTD, priority 2021, dated 2026).
# Like-named read-outs stand apart in the source and are kept apart here.
# Legend:
# [1] = Study 101: pharmacokinetics of single doses in healthy subjects; format: in vivo, human
# Text: The primary objective of this Phase 1, double-blind, randomized, placebo-controlled study was to determine the safety, tolerability, and pharmacokinetics of single ascending doses of DC009 drug product administered by 15-minute IV infusion in healthy subjects. The secondary objectives were to characterize the pharmacodynamics of single-ascending doses, explore the pharmacokinetic-pharmacodynamic relationships of single-ascending doses, and to determine the RP2D of the DC009 drug product.
# The subject population was healthy adult male and female subjects between the ages of 18 and 65 years. Sixteen healthy subjects completed the study. All subjects received a single dose of DC009 drug product or placebo administered via a 15-minute IV infusion.
# Cohort 1 (8 subjects) was administered 0.05 mg/kg DC009 drug product or placebo, and Cohort 0 (8 subjects) was administered 0.025 mg/kg DC009 drug product or placebo.
# Primary Endpoints: • Nature and severity of adverse events (AEs) and number of subjects with AEs • Changes from baseline in vital signs, electrocardiogram (ECG) results, laboratory abnormalities, plasmin-antiplasmin complex, euglobulin clot lysis time, platelet aggregation, and physical examination findings • Pharmacokinetic parameters: maximum plasma concentration (Cmax), time to reach the observed maximum (peak) concentration (Tmax), area under the plasma concentration-time curve from time zero to the time of the last quantifiable concentration (AUC0-t), elimination half-life (T1/2), total body clearance of the drug from plasma (CL), and volume of distribution Secondary Endpoints • Pharmacodynamic effects of DC009 drug product on blood pressure, thrombin time (TT), prothrombin time (PT), euglobulin clot lysis time, and activated partial thromboplastin time (aPTT) up to 48 hours after dosing • Relationship between DC009 plasma concentrations and the selected PD and safety parameters • RP2D (recommended phase II dose) Results
# The pharmacokinetic parameters of DC009 drug product were assessed included maximum plasma concentration (Cmax), time to reach Cmax (Tmax), area under the plasma concentration-time curve from time zero to infinity (AUC0-∞), area under the plasma concentration-time curve from time zero to the time of the last quantifiable concentration (AUC0-t), elimination half-life (T1/2), total body clearance of the drug from plasma (CL), and volume of distribution at steady state (Vss). A single sample of blood was collected at the following time points for the quantification of DC009 in plasma: at predose, 5, 10, 15 (end of infusion), 20, 25, 30, and 45 minutes; and at 1, 2, 4, 6, 12, 18, and 24 hours after infusion was initiated.
# [2] = system: patients with Acute Ischemic Stroke (AIS); experiment: Study 201: Phase 2 single-dose study in patients with Acute Ischemic Stroke, efficacy (NIHSS, mRS); format: in vivo, human; conditions: Day 90
# Text: The objective of this Phase 2, double-blind, single-dose, randomized, placebo-controlled study is to evaluate the safety, tolerability, and potential efficacy of DC009 drug product in patients with Acute Ischemic Stroke (AIS). The safety and potential efficacy outcomes from this Phase 2 study will guide the design of future studies in patients with acute ischemic stroke. Eligible patients will be randomized 2:1 to receive DC009 drug product or placebo via a 15-minute IV infusion to obtain a total of approximately 24 evaluable patients. Eligible patients will receive a single 0.025 mg/kg dose of DC009 drug product or placebo within 24 hours after the onset of stroke symptoms.
# The key inclusion criteria are as follows: Subject a) are to be aged 18-90 years, inclusive, at the time of screening, b) have a NIHSS of 4-30, c) clinical diagnosis of AIS within 24 hours after stroke symptom onset.
# Tissue plasminogen activator (alteplase) is the only approved drug treatment for stroke in the US and, per the labeling, must be administered within 3 hours of stroke symptom onset. The approved window of administration in other countries varies. Because there is no approved drug treatment for acute ischemic stroke for administration beyond 3 hours of stroke symptom onset in the US, a placebo-controlled study would be ethically acceptable and is necessary in order to evaluate the drug effect objectively. Preliminary efficacy will be evaluated by assessing the infarct volume, occurrence of recurrent stroke, neurological outcome measured by NIHSS and functional independence measured by Modified Rankin Scale (mRS).
# • The occurrence of symptomatic intracranial hemorrhage (sICH) within 36 hours after dosing, clinical deterioration defined as an increase in the NIHSS of 4 points or more and confirmed by computed tomography or magnetic resonance imaging. Secondary Endpoint: • The occurrence of symptomatic intracranial hemorrhage (sICH) and asymptomatic intracranial hemorrhage (aICH) within 7 days after dosing • The occurrence of mortality due to intracerebral or other major bleeding complications within 24 hours, 7 days, 30 days, and 90 days after dosing. • Number and severity of AEs within 90 days after dosing • The occurrence of recurrent stroke within 90 days after dosing • Functional outcome such as mRS • Neurological outcome such as NIHSS at 30 days • The change of infarct volume in CT or MRI examination at 24 hours and 7 days • Plasma PK parameters of DC009 Results Baseline Characterization
# minipigs = experiment: Pre-clinical toxicity in minipig; format: in vivo; conditions: set from pre-clinical toxicity result in minipigs
# Description: According to inventors' pre-clinical toxicity result of DC009 in minipig, the inventors set up a limit on plasma exposure of 1177 ng/mL in minipigs. The inventors then set up a safety factor to provide a margin of safety for protecting human subjects receiving the initial clinical dose. As described in the Background, the default safety factor is 10 but it may be adjusted based on available safety data.
# [3] = 0.025 mg/kg dose to the 0.05 mg/kg dose
compound,measurement,setting,value
"CC(NC(=O)C1CCCN1)C(=O)NC(CCCCN)C(=O)NCCCCC(NC(=O)C1Cc2cc(O)c(O)cc2C(C)(C)N1)C(=O)O (stereo not drawn) [DC009, 3S-6,7-dihydroxy-1,1-dimethyl-1,2,3,4-tetrahydro-isoquinoline-3-acyl-Lys(Pro-Ala-Lys)]",dose-normalized geometric mean ratio for AUC0-inf,[1]; [3],1.40
same,dose-normalized geometric mean ratio for Cmax,[1]; [3],1.46
same,time measurable in plasma samples after the start of the infusion,"[1]; 0.025 and 0.05 mg/kg, single 15-minute IV infusion",only measurable within the first half-hour
same,dose proportionality of exposure,[1]; 0.025 vs 0.05 mg/kg,approximately dose proportional
same,Cmax,"[1]; Cohort 1, 0.05 mg/kg, single 15-minute IV infusion, individual subjects",120 ng/mL
same,Cmax,"[1]; both sexes, human, plasma, iv, 0.025 mg/kg, Cohort 0, 0.025 mg/kg, single 15-minute IV infusion, Mean ± SEM, read-out: Cmax",< 110 ng/mL
same,Cmax,"[1]; both sexes, human, plasma, iv, 0.05 mg/kg, Cohort 1, 0.05 mg/kg, single 15-minute IV infusion, Mean ± SEM, read-out: Cmax",< 110 ng/mL
same,Cmax,"[1]; both sexes, human, plasma, iv, 0.05 mg/kg, Cohort 1, 0.05 mg/kg, single 15-minute IV infusion, individual subjects, read-out: Cmax",152 ng/mL
same,half-life,"[1]; both sexes, human, plasma, iv, 0.025 and 0.05 mg/kg, single 15-minute IV infusion, read-out: T1/2, range",3 to 4.2 min
same,half-life,"[1]; both sexes, human, plasma, iv, 0.025 and 0.05 mg/kg, single 15-minute IV infusion, read-out: mean of T1/2 (converted)",3.24 min
same,Tmax,"[1]; both sexes, human, plasma, 0.025 and 0.05 mg/kg, single 15-minute IV infusion",6 to 18 min
same,subjects with mRS of 0-1,"[2]; pre-dose 0%, 3 subjects",21%
same,subjects with mRS Score 3,[2]; pre-dose 6%,29%
same,subjects with mRS Score 2,[2]; pre-dose 13%,29%
same,subjects with mRS Score 5 or 4,[2]; pre-dose 81%,21%
same,limit on plasma exposure,minipigs,1177 ng/mL
